The text below walks through data of publication PMC12062965, “Transposable Elements Drive Regulatory and Functional Innovation of F-box Genes”.

Series [1] concerns the target T1, GST-FBXA-215 FL (Caenorhabditis elegans, UniProt A0A8S4Q9N7 1-401).
T1 sequence: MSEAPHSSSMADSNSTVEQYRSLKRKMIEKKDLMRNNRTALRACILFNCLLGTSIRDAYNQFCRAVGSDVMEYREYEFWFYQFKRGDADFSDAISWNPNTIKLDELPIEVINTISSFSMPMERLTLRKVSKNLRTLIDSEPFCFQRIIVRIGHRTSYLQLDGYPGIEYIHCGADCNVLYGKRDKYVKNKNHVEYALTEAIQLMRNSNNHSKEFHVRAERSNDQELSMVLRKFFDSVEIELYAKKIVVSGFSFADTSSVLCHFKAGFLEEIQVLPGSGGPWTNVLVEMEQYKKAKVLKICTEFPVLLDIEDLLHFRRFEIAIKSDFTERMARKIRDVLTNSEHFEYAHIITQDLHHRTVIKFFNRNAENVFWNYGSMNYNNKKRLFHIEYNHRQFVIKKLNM
The series can be described thus: EMSA; 50 mM Tris-HCl pH 7.5, 150 mM NaCl, 1 mM DTT, protease inhibitors, 2.5% glycerol, 77.3 nM DNA, 25 C 15 min; native 1.5% agarose gel in TBE at 4 C, SYBR Gold stain. As to conditions: protein: recombinant; tags: N-terminal GST; blunt. (In EMSA bound probe runs differently from free probe, usually more slowly.)

The target in series [2] is T2, GST-FBXA-192 FL (Caenorhabditis elegans, UniProt Q9XUX2 1-401).
T2 sequence: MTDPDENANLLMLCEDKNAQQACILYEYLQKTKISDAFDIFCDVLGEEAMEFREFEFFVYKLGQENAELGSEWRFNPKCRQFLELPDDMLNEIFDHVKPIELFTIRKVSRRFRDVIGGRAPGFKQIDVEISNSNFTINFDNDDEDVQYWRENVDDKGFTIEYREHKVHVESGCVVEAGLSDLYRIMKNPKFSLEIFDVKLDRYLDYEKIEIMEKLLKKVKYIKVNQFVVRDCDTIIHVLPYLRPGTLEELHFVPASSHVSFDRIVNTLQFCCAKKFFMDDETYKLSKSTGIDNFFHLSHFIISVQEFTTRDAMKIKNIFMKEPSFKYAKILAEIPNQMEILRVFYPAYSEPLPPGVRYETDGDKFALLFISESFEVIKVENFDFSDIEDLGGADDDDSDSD
Described as above. As to conditions: protein: recombinant; tags: N-terminal GST; blunt.

B1: Mos1 right TIR (IRR100) (dsDNA)
DNA 1: TTTCTTTTTCCACAAAATTTAACGTGTTTTTTGATTTAAAAAAAACGACATTTCATACTTGTACACCTGA
DNA 2: TCAGGTGTACAAGTATGAAATGTCGTTTTTTTTAAATCAAAAAACACGTTAAATTTTGTGGAAAAAGAAA
Consider B1, for which the binding result in series [1] and in series [2] was “no binding” each time.
